Legend:
human CD19 [1] = biological target: T1, human CD19 (human, UniProt P15391 20-556); assay: flow cytometry competition for binding with FMC63 (n = 3)
T1 sequence: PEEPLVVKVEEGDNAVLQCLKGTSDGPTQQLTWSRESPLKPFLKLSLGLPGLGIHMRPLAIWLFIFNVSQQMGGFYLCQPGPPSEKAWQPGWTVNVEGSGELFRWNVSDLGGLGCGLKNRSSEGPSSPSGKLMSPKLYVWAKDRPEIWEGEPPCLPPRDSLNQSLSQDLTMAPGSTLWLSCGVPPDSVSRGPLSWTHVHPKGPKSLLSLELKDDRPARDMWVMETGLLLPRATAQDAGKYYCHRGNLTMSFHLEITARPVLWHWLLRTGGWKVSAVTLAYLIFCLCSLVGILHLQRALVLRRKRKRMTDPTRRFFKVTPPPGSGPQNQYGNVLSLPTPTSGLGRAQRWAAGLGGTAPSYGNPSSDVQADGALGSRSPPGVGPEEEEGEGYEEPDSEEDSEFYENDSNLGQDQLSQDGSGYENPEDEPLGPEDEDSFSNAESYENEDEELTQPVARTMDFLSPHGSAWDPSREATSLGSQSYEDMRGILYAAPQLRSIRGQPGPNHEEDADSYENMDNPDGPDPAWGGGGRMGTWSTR

human CD19 [2] = biological target: T1, human CD19; assay: flow cytometry on CD19-expressing cells (n = 4)
human CD19 [3] = biological target: T1, human CD19; assay: flow cytometry, HIS-tagged scFv bacterial supernatant on CD19-transfected HEK293 cells (FIG. 8A)
Text: (§1) A third scFv library was generated by shuffling the VH sequences from the selection in (a) with the VL sequences resulting from the selection in (b). […] Binding by the selected scFv clones to CD19-expressing cells was confirmed by flow cytometry using bacterially-produced supernatant. The selected scFv pools were cloned into E. coli expression vectors and produced as HIS-tagged scFvs. Binding of individual clones to CD19-transfected HEK293 cells was detected with anti-HIS-Alexa647 conjugate by flow cytometry.

human CD19 [4] = biological target: T1, human CD19; assay: flow cytometry, HIS-tagged scFv bacterial supernatant on CD19-transfected HEK293 cells (FIG. 8B)
Text: as §1

human CD19 [5] = biological target: T1, human CD19; assay: flow cytometry on CD19-expressing cells (n = 1)
Text: Various clones were titrated and their binding affinity (EC50) to various CD19-expressing cells assessed by flow cytometry.

human CD19 [6] = biological target: T1, human CD19; assay: flow cytometry competition for binding with FMC63 (n = 1)
human CD19 [7] = biological target: T1, human CD19; assay: flow cytometry, scFv titrated on CD19-expressing K562 cells (FIG. 4, one plate)
human CD19 [8] = biological target: T1, human CD19; assay: flow cytometry on CD19-expressing cells (n = 3)
human CD19 [9] = biological target: T1, human CD19; assay: flow cytometry competition for binding with FMC63 (n = 2)
human CD19 [10] = biological target: T1, human CD19; assay: flow cytometry, scFv titrated on CD19-expressing K562 cells (FIG. 4, another plate)
human CD19 [11] = biological target: T1, human CD19; assay: flow cytometry, scFv titrated on CD19-expressing K562 cells (FIG. 3A)

B1: Clone 285 scFv (scFv)
scFv: EVQLVESGGGLVQPGRSLRLSCAASGFTFDDYAMHWVRQAPGKGLEWVSGISWNSGRIGYADSVKGRFTISRDNAKNSLFLQMNSLRAEDTAVYYCARDQGYHYYDSAEHAFDIWGQGTVVTVSSGGGGSGGGGSGGGGSQSALTQPASVSGSPGQSITISCTGTSSDLGGYNYVSWYQHRPGKAPKLIIYDVTVRPSGVSDRFSGSKSGNTASLTISGLQAEDEADYYCGSYTSSSTLLWVFGGGTKLTVL
notes: Human scFv
- IC50 (human CD19 [1]): 9.4 nM
- EC50 (human CD19 [2]): 2.5 nM

B2: Clone 283 scFv (scFv)
scFv: QVQLVESGGGLVQPGRSLRLSCAASGFTFDDYAMHWVRQAPGKGLEWVSGISWNSGRIGYADSVKGRFTISRDNAKNSLFLQMNSLRAEDTAVYYCARDQGYHYYDSAEHAFDIWGQGTVVTVSSGGGGSGGGGSGGGGSQSALTQPASVSGSPGQSITISCTGTSSDLGGYNYVSWYQHRPGKAPKLIIYDVTVRPSGVSDRFSGSKSGNTASLTISGLQAEDEADYYCGSYTSSSTLLWVFGGGTKLTVL
notes: HIS- or FLAG-tagged
- binding result (human CD19 [3]): binds

B3: Clone 302 scFv (scFv)
scFv: QVQLVESGGGLVQPGRSLRLSCAASGFTFDDYAMHWVRQAPGKGLEWVSGISWNSGRIGYADSVKGRFTISRDNAKNSLFLQMNSLRAEDTAVYYCARDQGYHYYDSAEHAFDIWGQGTVVTVSSGGGGSGGGGSGGGGSQSALTQPASVSGSPGQSITISCTGTSSDLGGYNYVSWYQHRPGKAPKLIIYDVTVRPSGVSDRFSGSKSGNTASLTISGLQAEDEADYYCGSYTSSSTLLWVFGGGTKLTVL
notes: HIS- or FLAG-tagged
- binding result (human CD19 [4]): binds

B4: Clone 336 scFv (scFv)
scFv: QVQLVESGGGLVQPGRSLRLSCAASGFTFDDYAMHWVRQAPGKGLEWVSGISWNSGRIGYADSVKGRFTISRDNAKNSLFLQMNSLRAEDTAVYYCARDQGYHYYDSAEHAFDIWGQGTVVTVSSGGGGSGGGGSGGGGSQSALTQPASVSGSPGQSITISCTGTSSDLGGYNYVSWYQHRPGKAPKLIIYDVTVRPSGVSDRFSGSKSGNTASLTISGLQAEDEADYYCGSYTSSSTLLWVFGGGTKLTVL
notes: HIS- or FLAG-tagged
- binding result (human CD19 [4]): binds

B5: Clone 505 scFv (scFv)
scFv: EVQLVESGGGLVQPGRSLRLSCAASGFTFDDYAMHWVRQAPGKGLEWVSGISWNSGRIGYADSVKGRFTISRDNAKNSLFLQMNSLRAEDTAVYYCARDQGYHYYDSAEHAFDIWGQGTMVTVSSQSVLTQPRSLSGSPGQSVTIACTGASTDVGGYNYVSWYQQHPGKAPKLMIYDVNKRPSGVPDRFSGSKSGNTAFLTISGLQAEDEADYYCCSYAGSYTFEVFGGGTKLTVL
- EC50 (human CD19 [5]): 139 nM

B6: Clone 79 scFv (scFv)
scFv: EVQLVESGGGLVQPGRSLRLSCAASGFTFDDYAMHWVRQAPGKGLEWVSGISWNSGRIGYADSVKGRFTISRDNAKNSLFLQMNSLRAEDTAVYYCARDQGYHYYDSAEHAFDIWGQGTVVTVSSGGGGSGGGGSGGGGSQSVLTQPPSVSAAPGQKVTISCSGSSSNIGNNYVSWYQQLPGTAPKLLIYDNNKRPSGIPDRFSGSKSGTSATLGITGLQTGDEGDYYCGTWDISLRFGVFGGGTKVTVL
notes: Human scFv
- EC50 (human CD19 [5]): 65.7 nM
- IC50 (human CD19 [6]): 102 nM

B7: Clone 506 scFv (scFv)
scFv: EVQLVESGGGLVQPGRSLRLSCAASGFTFDDYAMHWVRQAPGKGLEWVSGISWNSGRIGYADSVKGRFTISRDNAKNSLFLQMNSLRAEDTAVYYCARDQGYHYYDSAEHAFDIWGQGTMVTVSSGGGGSGGGGSGGGGSQLVLTQPPSVSGSPGQSVTFSCTGASSDVGGYDHVSWYQHHPGKGPKLLIYDVSKRPSGVPDRFSGSKSGNTASLTISGLQAEDEADYYCCSFAGYYTYWLFGGGTKVTVL
notes: Human scFv
- EC50 (human CD19 [5]): 179 nM

B8: Clone 328 scFv (scFv)
scFv: QVQLVESGGGLVQPGRSLRLSCAASGFTFDDYAMHWVRQAPGKGLEWVSGISWNSGRIGYADSVKGRFTISRDNAKNSLFLQMNSLRAEDTAVYYCARDQGYHYYDSAEHAFDIWGQGTVVTVSSGGGGSGGGGSGGGGSQSALTQPASVSGSPGHSITISCTGTRSDVGGFDYVSWYQHNPGKAPKLIIYDVTKRPSGVSNRFSGAKSGITASLTISGLQAEDEADYYCTSYRPGPTFVFGTGTKLTVL
notes: Human scFv
- EC50 (human CD19 [2]): 10.9 nM
- IC50 (human CD19 [6]): 32.9 nM

B9: Clone 272 scFv (scFv)
scFv: EVQLVESGGGLVQPGRSLRLSCAASGFTFDDYAMHWVRQAPGKGLEWVSGISWNSGRIGYADSVKGRFTISRDNAKNSLFLQMNSLRAEDTAVYYCARDQGYHYYDSAEHAFDIWGQGTVVTVSSGGGGSGGGGSGGGGSQSVLTQPPSVSAAPGQKVTISCSGSSSNIGNNYVSWYQQLPGTAPKLLIYDNNKRPSGIPDRFSGSKSGTSATLGITGLQTGDEADYYCGTWDSSLNRDWVFGGGTKLTVL
notes: HIS- or FLAG-tagged
- binding result (human CD19 [3]): binds

B10: Clone 1 scFv (scFv)
scFv: EVQLVESGGGLVQPGRSLRLSCAASGFTFDDYAMHWVRQAPGKGLEWVSGISWNSGRIGYADSVKGRFTISRDNAKNSLFLQMNSLRAEDTAVYYCARDQGYHYYDSAEHAFDIWGQGTMVTVSSGGGGSGGGGSGGGGSQSALTQPASVSGSPGQSITISCTGTSSDVGAYNFVSWYQQLPGTAPKFLIYDNNKRPPGIPDRFSGSKSGTSATLGITGLQTGDEADYYCATWDSGLSAVVFGGGTKLTVL
notes: Human scFv
- EC50 (human CD19 [5]): 214 nM
- EC50 (human CD19 [7]): 214 nM

B11: Clone 227 scFv (scFv)
scFv: EVQLVQSGGGLVQPGRSLRLSCAASGFTFDDYAMHWVRQAPGKGLEWVSGISWNSGSIGYADSVKGRFTISRDNAKNSLYLQMNSLRAEDTAVYYCARDQGYHYYDSAEHAFDIWGQGTVVTVSSGGGGSGGGGSGGGGSDIQLTQSPSTLSASVGDRVTITCRASQSISRWLAWYQQKPGKAPKLLIYDASNLETGVPSRFSGSGSGTDFTFTISSLQPEDIATYYCQQYDNLPLTFGGGTKVEIK
notes: Human scFv
- EC50 (human CD19 [8]): 31.8 nM
- IC50 (human CD19 [9]): 56.1 nM

B12: Clone 184 scFv (scFv, V domains shown)
VH: QVQLVESGGGLVQPGRSLRLSCAASGFTFDDYAMHWVRQAPGKGLEWVSGISWNSGRIGYADSVKGRFTISRDNAKNSLFLQMNSLRAEDTAVYYCARDQGYHYYDSAEHAFDIWGQGTMVTVSS
- EC50 (human CD19 [5]): 114 nM
- EC50 (human CD19 [10]): 114 nM

B13: Clone 1300 scFv (scFv)
scFv: QMQLVQSGGGLVQPGRSLRLSCAASGFTFDDYAMHWVRQAPGKGLEWVSGISWNSGSIGYADSVKGRFTISRDNAKNSLYLQMNSLRAEDTAVYYCARDQGYHYYDSAEHAFDIWGQGTVVTVSSGGGGSGGGGSGGGGSAIRMTQSPSTLSASVGDRVTITCRASQSISHYLAWYQQKPGKAPKLLIFDASRLASGVPSRFSGSGSGTDFTLTISSLQPEDFATYYCQQSYGAPMFTFGPGTRVDLK
notes: Human scFv
- EC50 (human CD19 [8]): 1.3 nM
- IC50 (human CD19 [9]): 3.9 nM

B14: Clone 192 scFv (scFv)
scFv: EVQLVESGGGLVQPGRSLRLSCAASGFTFDDYAMHWVRQAPGKGLEWVSGISWNSGRIGYADSVKGRFTISRDNAKNSLFLQMNSLRAEDTAVYYCARDQGYHYYDSAEHAFDIWGQGTMVTVSSGGGGSGGGGSGGGGSQAVLTQPRSVSGSPGQSVTISCTGISSGVDSHRYVSWYQHHPGKAPKLMIYDFSKRPSGVPDRFSGSKSGNTASLTISGLQAEDEADYYCCSYAAISPNYVFGTGTKLTVL
notes: Human scFv
- EC50 (human CD19 [11]): 12.8 nM
- EC50 (human CD19 [10]): 12 nM

B15: Clone 192B scFv (scFv)
scFv: QVQLVESGGGLVQPGRSLRLSCAASGFTFDDYAMHWVRQAPGKGLEWVSGISWNSGRIGYADSVKGRFTISRDNAKNSLFLQMNSLRAEDTAVYYCARDQGYHYYDSAEHAFDIWGQGTMVTVSSGGGGSGGGGSGGGGSQAVLTQPRSVSGSPGQSVTISCTGISSGVDSHRYVSWYQHHPGKAPKLMIYDFSKRPSGVPDRFSGSKSGNTASLTISGLQAEDEADYYCSSYAAISPNYVFGTGTKLTVL
notes: Human scFv
- IC50 (human CD19 [1]): 15.7 nM
- EC50 (human CD19 [8]): 7.7 nM
